Measured values: the supplement of paper PMC9732359
± gives the uncertainty stated by the source.

Experiment: protein stability index of a GFP-peptide fusion (yeast GPS) (PSI 1-4); higher = more stable; sorted into four equal gates, so the index is relative within each strain
In short: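 Yeast carrying a pooled library were grown to mid-log phase in leucine-free medium. Each library plasmid expresses Cherry and has a tiled 17-residue yeast protein peptide fused downstream of GFP. Cells were sorted into four equal gates by GFP/Cherry ratio, and plasmids from each gate were PCR-amplified, Illumina-sequenced and assigned to strains by barcode. Summing, across gates, the read frequency times the gate number gave each peptide's protein stability index.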

Sequence	protein stability index (doa10∆)	protein stability index (pdr5∆)	protein stability index (san1∆)	protein stability index (ubr1∆)
VNEPTKNEEAEIEVDEM [RPN1]	3.25 ± 0.17	3.22 ± 0.23	3.08 ± 0.14	3.45 ± 0.16
KGETNSEISIIDATLKE [RRP45]	2.92 ± 0.074	3.08 ± 0.068	3.31 ± 0.072	3.19 ± 0.059
RVGVKLKFNSTEYRGTL [SMX3]	3.18 ± 0.11	3.17 ± 0.07	2.87 ± 0.09	3.02 ± 0.094
KRELLKRYRLKESQLPR [RPB5]	3.19 ± 0.2	3.29 ± 0.14	–	3.58 ± 0.14
KDFIENVNNRFDNFLTE [BRN1]	3.06 ± 0.086	3.04 ± 0.093	3.2 ± 0.068	2.88 ± 0.066
VVDHHVENELLQVDVDI [RRP42]	3.4 ± 0.13	3.25 ± 0.21	2.83 ± 0.17	–
FSNRFLPVASPFHSHLL [FAS1]	2.5 ± 0.13	2.98 ± 0.11	3.19 ± 0.27	2.76 ± 0.098
NKVSNTVSPTQDKDAIR [SIR2]	2.98 ± 0.052	3.26 ± 0.07	3.17 ± 0.056	3.11 ± 0.054
SNDLDKFFQKKIHLYEK [YGL172W/NUP49]	2.21 ± 0.057	2.22 ± 0.067	1.96 ± 0.061	2.32 ± 0.052
RMLEEAIDHLKAELEKQ [YIL149C/MLP2]	3.25 ± 0.056	3.21 ± 0.063	3.32 ± 0.073	3.12 ± 0.053
NGDNSTTTNTDQNNATM [SNF12]	2.4 ± 0.069	2.2 ± 0.069	2.52 ± 0.097	1.99 ± 0.051
LSTLRMEADPSLHPLFE [RPN9]	2.54 ± 0.057	2.33 ± 0.042	2.18 ± 0.096	2.41 ± 0.044
VWDKFAVNLLNCPHSDS [SSN2]	–	2.81 ± 0.27	–	–
STPNFGGNSNKSPPQFF [SIN4]	2.88 ± 0.039	3.1 ± 0.043	2.89 ± 0.03	2.9 ± 0.032
SSVMSSPRVEKRSFSST [YOR098C/NUP1]	2.75 ± 0.057	2.23 ± 0.041	2.44 ± 0.052	2.54 ± 0.039
SDPMLQRTATLCLEKLM [YCS4]	1.47 ± 0.21	–	–	1.14 ± 0.17
CVHMVYEYAEHDLLQII [SSN3]	2.26 ± 0.086	2.21 ± 0.089	2.12 ± 0.11	2.48 ± 0.08
GTLEYGTCFGGSKLEDM [RET1]	3.17 ± 0.072	3.16 ± 0.072	3.36 ± 0.061	3.29 ± 0.065
ASLKIKNATDLQQAKLR [SMC3]	3.11 ± 0.12	2.96 ± 0.11	2.93 ± 0.13	3.09 ± 0.095
TEHSKVTRFDEKQIEEL [SRB6]	3.2 ± 0.14	3.26 ± 0.086	3.11 ± 0.081	3.26 ± 0.07
SKQLSLEEKKKRPNNKT [IRR1]	2.5 ± 0.11	2.59 ± 0.094	2.21 ± 0.15	2.79 ± 0.096
EKKPAAKKTSTSTDGKK [HTB1]	3.33 ± 0.21	3.07 ± 0.11	2.85 ± 0.18	3.65 ± 0.25
GSRMVRELFVMAREHAP [RPT6]	1.82 ± 0.074	1.68 ± 0.073	1.09 ± 0.27	1.54 ± 0.079
RANVYVGFLVQLDLTGI [PRP8]	2.5 ± 0.05	2.13 ± 0.052	2.21 ± 0.057	2.45 ± 0.05
DSADVPAFSNSNGFNNV [YMR153W/NUP53]	3.1 ± 0.062	3.2 ± 0.067	3.22 ± 0.041	3.23 ± 0.048
TRKAARPQKLRASLVPG [RPL6A]	1.47 ± 0.21	1.5 ± 0.12	–	2 ± 0.12
QHDKMVDKIFEKVNNNA [SWI1]	3.19 ± 0.15	2.73 ± 0.081	2.87 ± 0.067	2.99 ± 0.041

Sequence	protein stability index (doa10∆)	protein stability index (pdr5∆)	protein stability index (san1∆)	protein stability index (ubr1∆)
MFQSQSQLQPQPQPQPQ [YDL088C/ASM4]	2.48 ± 0.056	2.49 ± 0.048	2.29 ± 0.068	2.99 ± 0.04
VDNIVNKYQYSLKQYAG [SRP68]	3.09 ± 0.084	3.08 ± 0.076	2.71 ± 0.068	2.99 ± 0.055
SDDKTRQLSPHTLMSFA [PRE1]	1.83 ± 0.046	2.12 ± 0.05	2.26 ± 0.082	2.18 ± 0.038
YWYFLQKLHKVKKASGE [RPL20A]	3.1 ± 0.093	2.86 ± 0.068	3.13 ± 0.049	2.97 ± 0.063
YMKFSNKYLELCKLASN [RRI2]	1.64 ± 0.05	1.87 ± 0.039	1.57 ± 0.092	1.76 ± 0.037
EGKYIVDVAKDINVKDL [RPT6]	3.44 ± 0.12	3.21 ± 0.11	2.67 ± 0.14	3.24 ± 0.093
NSSEIQSAIRPAGQATQ [RPL4A]	2.63 ± 0.085	2.85 ± 0.094	2.77 ± 0.039	2.57 ± 0.062
SKDLRSVWKPIAAIIGR [IRR1]	2.56 ± 0.06	2.15 ± 0.032	2.75 ± 0.049	2.58 ± 0.038
VQELLKVLNEISKTTLT [RPN3]	3.1 ± 0.15	3.29 ± 0.074	3.17 ± 0.055	3.39 ± 0.071
AQGKEFGVTKARWPAKS [RPL17A]	3.02 ± 0.13	3.49 ± 0.12	3.26 ± 0.066	3.35 ± 0.097
AQQKLKQNPGLMQNMMN [SRP54]	2.74 ± 0.056	2.42 ± 0.059	2.79 ± 0.044	2.54 ± 0.033
GSRVLIFSQMSRLLDIL [ISW2]	3.27 ± 0.15	3.46 ± 0.11	3.18 ± 0.11	3.58 ± 0.08
PTFTFGSSALADNKEDV [YLR335W/NUP2]	3.13 ± 0.074	3.06 ± 0.049	3.06 ± 0.041	3.09 ± 0.033
LEMSTEDFVKLAPARVR [RPS15]	2.83 ± 0.13	3.05 ± 0.1	3.07 ± 0.065	2.78 ± 0.07
TFSWLNAELLDYLFHLL [YLR018C/POM34]	1.64 ± 0.075	1.47 ± 0.039	1.46 ± 0.14	1.4 ± 0.044
SLTDVAFFTYDAGVTFN [ECM29]	2.66 ± 0.065	2.34 ± 0.057	2.82 ± 0.063	2.6 ± 0.068
LRAHTDDSRNPDCKIKI [PRE2]	2.86 ± 0.073	2.92 ± 0.12	2.86 ± 0.085	2.77 ± 0.11
KDGLKLVGSWKKDRATG [RPO21]	3.58 ± 0.2	–	3.33 ± 0.15	–
HLIFSNARIYNTEGSVV [SNF2]	3 ± 0.12	3.39 ± 0.18	2.49 ± 0.19	3.18 ± 0.085
CNERVPLSVATELMNRS [SRP72]	2.43 ± 0.033	2.52 ± 0.044	2.26 ± 0.052	2.19 ± 0.036
ETLVLDEADKMIDLGFE [PRP28]	3.18 ± 0.094	3.22 ± 0.12	3.31 ± 0.088	3.08 ± 0.056
NATVNLAMEAILNELEV [YJR042W/NUP85]	2.7 ± 0.11	3 ± 0.11	2.58 ± 0.12	2.55 ± 0.11
LCEEYLVNNGQSDLEHD [RPN7]	2.78 ± 0.11	2.63 ± 0.11	2.66 ± 0.081	2.48 ± 0.12
ELEQLVEFNRKVVIPNL [RPN3]	3.3 ± 0.14	2.77 ± 0.28	3.26 ± 0.071	3.25 ± 0.11
APKIHILDPSTEYCVGD [YMR129W/POM152]	2.91 ± 0.13	3.35 ± 0.092	2.97 ± 0.087	2.79 ± 0.13
FGSADDTYPYLTGEWST [FAS1]	2.32 ± 0.067	1.32 ± 0.047	1.21 ± 0.086	1.28 ± 0.072
NRQAAASVVPSASSLVI [RPL12A]	1.73 ± 0.03	2.17 ± 0.038	1.98 ± 0.049	1.83 ± 0.032
